Assay results published in article PMC6589784.
Read-outs that look alike come from different tables or passages of the source. Blank lines part the entries; values can stand above or below the substance they belong to.

Key:
[1] = target: Mg-ATP-actin (skeletal muscle actin, assembled into filaments) (rabbit or chicken) (UniProt P68135); assay: single-molecule two-color TIRFM
[2] = target: Mg-ATP-actin (skeletal muscle actin, assembled into filaments) (rabbit or chicken) (UniProt P68135); assay: bulk seeded pyrene actin assembly
[3] = target: Mg-ATP-actin (skeletal muscle actin, assembled into filaments) (rabbit or chicken) (UniProt P68135); assay: single-color TIRFM of actin elongation rates
[4] = target: Mg-ATP-actin (skeletal muscle actin, assembled into filaments) (rabbit or chicken) (UniProt P68135); assay: single-molecule two-color TIRFM; remark: listed apart in the source
[5] = target: Mg-ATP-actin (skeletal muscle actin, assembled into filaments) (rabbit or chicken) (UniProt P68135); assay: single-molecule two-color TIRFM; remark: listed apart in the source

Substance: MBP-SNAP(549)-EnaΔLΔCC-GCN4
- processive run length tau, 2-filament trailing barbed ends [1]: 1.5 s

Substance: unlabeled UNC-34 (natural protein)
- Kd [2]: 10.2 nM
- Kd [3]: 6.7 nM

Substance: unlabeled VASP (from UniProt P50552 1-380) (natural protein)
- Kd [2]: 10.8 nM
- Kd [3]: 12.2 nM

Substance: unlabeled EnaΔL (from UniProt Q8T4F7 1-980) (natural protein)
- Kd [2]: 0.7 nM
- Kd [3]: 3.2 nM

More lines, now with the values ahead:

- processive run length tau, 2-filament trailing barbed ends [1]: 8.9 s
- processive run length tau, 3- or more filament trailing barbed ends [1]: 11.2 s
Substance: MBP-SNAP(549)-EnaΔLΔCC-Foldon

- average residence time tau, single filament barbed ends [1]: 1 s
- processive run length tau, trailing barbed ends of 2-filament fascin bundles [1]: 2.6 s
Substance: SNAP(549)-VASP (from UniProt P50552 1-380) (natural protein)

- average residence time tau, single filament barbed ends [1]: 1.2 s
- processive run length tau, trailing barbed ends of 2-filament fascin bundles [1]: 2.9 s
Substance: SNAP(549)-UNC-34 (natural protein)

- average processive run length tau, leading barbed ends [4]: 10.1 s
- average processive run length tau, trailing barbed ends [4]: 28.1 s
- average processive run length tau, leading barbed ends [1]: 8.4 s
- average processive run length tau, trailing barbed ends [1]: 23.7 s
- average residence time tau, single filament barbed ends [1]: 10 s
- average residence time tau, trailing barbed ends of a two-filament bundle [1]: 21.7 s
- average residence time tau, single filament barbed ends [5]: 8.9 s
- average residence time tau, trailing barbed ends of a two-filament bundle [5]: 16.8 s
Substance: SNAP(549)-EnaΔL (from UniProt Q8T4F7 1-980) (natural protein)
